These are literature values, as cited in paper PMC5520056, “Cryo-EM structures of the ATP-bound Vps4^E233Q hexamer and its complex with Vta1 at near-atomic resolution” (Nature Communications, 2017).

What is called Kd is a measure of binding affinity in units of concentration.

The data set concerns the target Vta1 VSL (Saccharomyces cerevisiae) (UniProt Q06263).

Vta1 VSL (Saccharomyces cerevisiae), sequence (Q06263 280-330): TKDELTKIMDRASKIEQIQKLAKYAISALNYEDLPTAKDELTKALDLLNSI
Vps4 β-domain, sequence (P52917 351-397): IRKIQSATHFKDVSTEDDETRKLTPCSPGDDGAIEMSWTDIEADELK

For Vps4 β-domain (from UniProt P52917), the Kd is 85 µM.
